From article PMC3923779, “Iron Acquisition in Bacillus cereus: The Roles of IlsA and Bacillibactin in Exogenous Ferritin Iron Mobilization” (PLoS Pathogens, 2014)

B1: IlsA (Iron-regulated leucine rich surface protein type A), recombinant, without signal peptide (natural protein, Bacillus cereus strain ATCC14579, UniProt Q81G77 29-760, looked up)
chain: ALKVEANQSVAAASDRTYDTEIKIYKDQKDEPSMVSQYIKDPKVTIAAGKKIVTVTMQDSDYFQYLRIEDKNQPGVFHDVKVLSEDKRKNGTKVVQFEIGEFEKKHNMQMHILIPAIGYDHKYQVQFEIKDPTVGNKETEKPDDNSNSGNTETDNPVDNQNMITDNKLRELVNKKVFNRKDLNTPITKEDLLQVKDLFLNTNEILDYSALKYMPNLKSLTVANAKIKDPSFFANLKQLNHLALRGNEFADVTPLVKMDNLESLDLSNNKITNVAPLTEMKNVKSLFLSGNQIEDVTALAKMEQLDYLNLANNKITNVAPLSNLKNVTYLTLAGNQIEDIKPLYTLPLKDLVLTRNKVKDLSGIDQLNQLQELWIGKNEITDVTPLSKMTQLKILNLPNNELKDITPLSSLVNLQKLDLEANYISDLSPVSNLKKLVFLSFVANEIRDVRPVIELSKTAYINVQNQKVFLEETEVNKEVKVPIYEKDGEISTKIRLKSDNGTYSNGVVKWSTPGEKVYEFGVKDPFADTGIFFTGSVIQNVVESKDGNTSKEDEKTEVVEFKDVPKGHWSEEAINYLAKEKLFIGYGNGEFGFGDNITRGQVALLIQRYLKLENNLEQKTAFTDTKGNMYETAIDAVVQAGIMTGYGNGMFRPDGVLTRYEMSVVLQRVFQLKENENSAENFKDVPNGHWAKGYVKALVDNKISKGDGEGNFLGDNFVTREQYAQFLYNAIKK
notes: IlsA of Bacillus cereus strain ATCC14579, NCBI gene number Bc1331; Holo form (hemin added until saturation of 80%) in the ITC; also called Holo-IlsA; full-length IlsA; source: E. coli C600 ΔhemA, purified (Bulk GST Purification Module, eluted with PreScission Protease); produced in apo-form, hemin added to reconstitute the holo-protein
B2: recombinant mouse H-chain ferritin (natural protein, UniProt P09528 1-182, looked up)
chain: MTTASPSQVRQNYHQDAEAAINRQINLELYASYVYLSMSCYFDRDDVALKNFAKYFLHQSHEEREHAEKLMKLQNQRGGRIFLQDIKKPDRDDWESGLNAMECALHLEKSVNQSLLELHKLATDKNDPHLCDFIETYYLSEQVKSIKELGDHVTNLRKMGAPEAGMAEYLFDKHTLGHGDES
notes: mouse ferritin H-chain, recombinant homopolymer; also called MoHF; recombinant mouse homopolymer H-chain; copies: 24

Columns and labels:
Test in all cases: ITC; 16 injections of 3 µl of 229 µM holo-IlsA into the cell with 1 µM ferritin; 25°C; 50 mM Tris-HCl pH 7, 150 mM NaCl, 1 mM EDTA, 1 mM DTT; model of one set of independent binding sites; apparent values
Conditions in all cases: both partners purified
[1] = target: T1, recombinant human L-chain ferritin (human, UniProt P02792 1-175)
T1 construct: human ferritin L-chain, recombinant homopolymer of 24 L-subunits; also called HuLF; recombinant human homopolymer L-chain; copies: 24

[2] = target: T2, recombinant human H-chain ferritin (human, UniProt P02794 1-183)
T2 construct: human ferritin H-chain, recombinant homopolymer of 24 H-subunits; loaded with 500 Fe/shell in the iron release assay; also called HuHF; holoHuHF; copies: 24

[3] = target: B2
[4] = target: T3, recombinant human heteropolymer H/L ferritin (human, UniProt P02794 1-183; P02792 1-175)
T3 construct: human ferritin H-chain in the recombinant heteropolymer; human ferritin L-chain in the recombinant heteropolymer; The results print ∼20 H-chains and 4 L-chains; also called HuH/LF; recombinant heteropolymer ferritin; copies: 20 + 4

[5] = target: B1

T1 sequence (P02792 whole entry): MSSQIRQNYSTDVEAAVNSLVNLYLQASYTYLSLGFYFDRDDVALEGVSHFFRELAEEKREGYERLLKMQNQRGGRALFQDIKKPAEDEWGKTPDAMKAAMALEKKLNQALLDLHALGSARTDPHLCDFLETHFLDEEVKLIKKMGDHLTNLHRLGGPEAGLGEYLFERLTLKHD
T2 sequence (P02794 whole entry): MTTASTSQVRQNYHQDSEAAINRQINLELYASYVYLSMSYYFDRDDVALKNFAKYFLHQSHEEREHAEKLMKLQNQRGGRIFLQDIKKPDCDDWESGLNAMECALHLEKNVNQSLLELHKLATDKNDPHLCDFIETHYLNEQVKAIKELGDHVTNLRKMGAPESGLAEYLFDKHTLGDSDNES
T3 sequence (P02794 whole entry, chain 1 of 2): as the sequence (P02794 whole entry) above
T3 sequence (P02792 whole entry, chain 2 of 2): as the sequence (P02792 whole entry) above

| Binder | dH [1] [kJ/mol] | stoichiometry N [1] [IlsA per ferritin shell] | dH [2] [kJ/mol] | stoichiometry N [2] [IlsA per ferritin shell] | dH [3] [kJ/mol] | stoichiometry N [3] [IlsA per ferritin shell] | dH [4] [kJ/mol] | stoichiometry N [4] [IlsA per ferritin shell] | Ka [5] [M⁻¹] |
| --- | --- | --- | --- | --- | --- | --- | --- | --- | --- |
| B1 | -8.71 | 23.9 | -4.11 | 25.2 | -3.35 | 24.9 | -8.72 | 23.8 |  |
| B2 |  |  |  |  |  |  |  |  | 2.07e+06 |
